Where no end group is shown, it is not given here. [ ]: non-standard residue; d: D form. Ahx = NCCCCCC(=O)O
B1: β-catenin (natural protein)
chain: MATQADLMELDMAMEPDRKAAVSHWQQQSYLDSGIHSGATTTAPSLSGKGNPEEEDVDTSQVLYEWEQGFSQSFTQEQVADIDGQYAMTRAQRVRAAMFPETLDEGMQIPSTQFDAAHPTNVQRLAEPSQMLKHAVVNLINYQDDAELATRAIPELTKLLNDEDQVVVNKAAVMVHQLSKKEASRHAIMRSPQMVSAIVRTMQNTNDVETARCTAGTLHNLSHHREGLLAIFKSGGIPALVKMLGSPVDSVLFYAITTLHNLLLHQEGAKMAVRLAGGLQKMVALLNKTNVKFLAITTDCLQILAYGNQESKLIILASGGPQALVNIMRTYTYEKLLWTTSRVLKVLSVCSSNKPAIVEAGGMQALGLHLTDPSQRLVQNCLWTLRNLSDAATKQEGMEGLLGTLVQLLGSDDINVVTCAAGILSNLTCNNYKNKMMVCQVGGIEALVRTVLRAGDREDITEPAICALRHLTSRHQEAEMAQNAVRLHYGLPVVVKLLHPPSHWPLIKATVGLIRNLALCPANHAPLREQGAIPRLVQLLVRAHQDTQRRTSMGGTQQQFVEGVRMEEIVEGCTGALHILARDVHNRIVIRGLNTIPLFVQLLYSPIENIQRVAAGVLCELAQDKEAAEAIEAEGATAPLTELLHSRNEGVATYAAAVLFRMSEDKPQDYKKRLSVELTSSLFRTEPMAWNETADLGLDIGAQGEPLGYRQDDPSYRSFHSGGYGQDALGMDPMMEHEMGGHHPGADYPVDGLPDLGHAQDLMDGLPPGDSNQLAWFDTDL

Assays:
Experiment in all cases: ITC
SAHPA1 = SAHPA1 (stapled: side chains of olefin residues (S5, R8) cross-linked by ring-closing metathesis, positions in Figure 1a; N-terminus treated with acetic anhydride (typical protocol))
SAHPA1-VHLL = SAHPA1-VHLL (stapled: side chains of olefin residues (S5, R8) cross-linked by ring-closing metathesis, positions in Figure 1a; 6-aminocaproic acid (Ahx) linker between the stapled peptide and the VHL ligand)
β-catenin [1] = biological target: B1
β-catenin [2] = biological target: B1

Ka (SAHPA1)	Kd (SAHPA1)	Ka (SAHPA1-VHLL)	Kd (SAHPA1-VHLL)	Kd (β-catenin [1])	Ka (β-catenin [2])	Binder
26400 M⁻¹	38 µM	18100 M⁻¹	55 µM	–	–	B1
–	–	–	–	37 µM	27000 M⁻¹	Ac-RRWPQLILDLHVRRVWR (staple (positions not given here); not fully specified (C-terminus); also: further groups not given here) [xStAx]
–	–	–	–	12 µM	–	RRWPQLILDLHVRRVWR[Ahx]ALAPYIP (staple (positions not given here); not fully specified (C-terminus); also: further groups not given here) [xStAx-VHLL]
